T1: extracellular domain of human IL12Rb2 (amino acids 24-622 of hIL12Rb2, UniProt Q99665) (human, UniProt Q99665 24-622)
T1 construct: also called hIL12Rb2 ECD; hIL12Rb2-ECD
T1 sequence: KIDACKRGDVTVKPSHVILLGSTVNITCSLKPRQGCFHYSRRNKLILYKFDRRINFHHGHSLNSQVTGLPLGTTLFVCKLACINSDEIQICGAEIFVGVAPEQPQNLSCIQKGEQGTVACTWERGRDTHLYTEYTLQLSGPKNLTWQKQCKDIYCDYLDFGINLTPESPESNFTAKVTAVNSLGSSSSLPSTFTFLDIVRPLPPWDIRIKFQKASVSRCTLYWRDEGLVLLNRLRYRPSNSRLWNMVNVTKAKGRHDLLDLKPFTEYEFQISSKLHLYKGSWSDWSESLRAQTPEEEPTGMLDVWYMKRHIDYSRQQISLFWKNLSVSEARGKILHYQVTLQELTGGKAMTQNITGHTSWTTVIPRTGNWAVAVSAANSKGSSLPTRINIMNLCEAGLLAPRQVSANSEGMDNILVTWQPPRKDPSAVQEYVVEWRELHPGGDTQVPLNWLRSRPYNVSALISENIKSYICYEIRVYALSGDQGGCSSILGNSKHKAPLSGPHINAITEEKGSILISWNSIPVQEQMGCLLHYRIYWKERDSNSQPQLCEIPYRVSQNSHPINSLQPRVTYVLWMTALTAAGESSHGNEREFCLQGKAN

T2: extracellular domain of mouse IL12Rb2 (614 amino acids, amino acids 24-637 of the mIL12Rb2 precursor, UniProt … (mouse, UniProt P97378 24-637))
T2 construct: also called mIL12Rb2 ECD; mIL12Rb2 ECD antigen
T2 sequence: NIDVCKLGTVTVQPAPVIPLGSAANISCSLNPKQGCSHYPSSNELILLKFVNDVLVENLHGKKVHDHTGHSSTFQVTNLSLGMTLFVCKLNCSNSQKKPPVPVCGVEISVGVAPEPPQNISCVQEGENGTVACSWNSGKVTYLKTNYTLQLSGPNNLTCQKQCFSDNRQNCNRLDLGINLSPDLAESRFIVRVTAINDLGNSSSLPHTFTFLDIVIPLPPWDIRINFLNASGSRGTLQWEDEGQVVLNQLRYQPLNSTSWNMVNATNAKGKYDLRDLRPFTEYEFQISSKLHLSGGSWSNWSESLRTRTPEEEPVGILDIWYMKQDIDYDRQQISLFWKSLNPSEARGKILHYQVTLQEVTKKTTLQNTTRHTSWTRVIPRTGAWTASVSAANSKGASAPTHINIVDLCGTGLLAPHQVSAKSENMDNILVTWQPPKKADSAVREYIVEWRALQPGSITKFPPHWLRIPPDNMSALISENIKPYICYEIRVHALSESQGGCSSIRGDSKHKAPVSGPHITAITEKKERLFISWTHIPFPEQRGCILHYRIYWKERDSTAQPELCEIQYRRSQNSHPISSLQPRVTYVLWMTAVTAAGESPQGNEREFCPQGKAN


How the values were obtained:
[1] = biological target: T1, extracellular domain of human IL12Rb2 …; experiment: periplasmic extract ELISA on antigen-coated plate; positive if A450 at least threefold over PBS-coated control
Description: (§1) Upon completion of the biopanning of Example 3, three 96-well plates of individual phage clones were isolated in order to perform periplasmic extract ELISA (PE-ELISA) on IL12Rb2 coated plates to identify positive VHH binders that selectively bound IL12Rb2. A 96-well plate was coated with IL12Rb2 and PBS under the same conditions. Next, wells were blocked at 37° C. for 1 h. Then, 100 μl of extracted antibodies was added to each well and incubated for 1 h. Subsequently, 100 μl of anti-tag polyclonal antibody conjugated to HRP was added to each well and incubated at 37° C. for 1 h. Plates were developed with TMB substrate. The reaction was stopped by the addition of H2SO4. Absorbance at 450 nm was read on a microtiter plate reader. Antibodies with absorbance of the antigen-coated well at least threefold greater than PBS-coated control are VHHs that specifically bind to IL 12Rb2. Positive clones were sequenced, and sequences analyzed to identify unique clonotypes

[2] = biological target: T2, extracellular domain of mouse IL12Rb2 …; experiment: as above
Description: as §1

Binder | binding result [1] | binding result [2]
VHH3 (VHH, Camel VHH, tested as a periplasmic extract of a phage clone; also called anti-human IL12Rb2 VHH3; hIL12Rb2 VHH; not shown: HA/His tag encoded by the pMECS phagemid) VHH: QVQLQESGGGSVQAGGSLRLSCTASGLTFDDVEMAWYRQGPGDDYDLVSSINTDSRVYYVDSVKDRFTISRDNAKNTLYLQMNNLKPEDTAVYYCAADPWGGDLRGYPNYWGQGTQVTVSS | binds | –
mIL12Rb2 VHH1 (VHH, Camel VHH, tested as a periplasmic extract of a phage clone; also called anti-mouse IL12Rb2 VHH1; not shown: HA/His tag encoded by the pMECS phagemid) VHH: QVQLQESGGGSVQAGGSLRLSCAASGYTYSNRHMGWFRQAPGKEREGVAAIYTGGGSTYYADSVKDRFTISQDNAKNTLYLQMNSLTPEDTAMYYCAADLTRWYSGGWRDPRGYKYWGQGTQVTVS | – | binds
VHH7 (VHH, Camel VHH, tested as a periplasmic extract of a phage clone; also called anti-human IL12Rb2 VHH7; hIL12Rb2 VHH; not shown: HA/His tag encoded by the pMECS phagemid) VHH: QVQLQESGGGSVQAGGSLRLSCAASGVTYSRYCMGWFRQAPGLERERVATIYSRGIITYYTDSVKGRFTISQDSAKKTVYLQMNSLKPEDTAMYYCAATRETYGGSGDCDYESVYNYWAQGTQVTVSS | binds | –
VHH12 (VHH, Camel VHH, tested as a periplasmic extract of a phage clone; also called anti-human IL12Rb2 VHH12; hIL12Rb2 VHH; not shown: HA/His tag encoded by the pMECS phagemid) VHH: QVQLQESGGGSVQAGGSLRLSCAASGVTYSRYCMGWFRQAPGLERERVATIYSRGIITYYTDSVKGRFTISQDSAKKTVYLQMNMLKPEDTAMYYCAATRETYGGSGDCDYESVYNYWAQGTQVTVSS | binds | –
VHH14 (VHH, Camel VHH, tested as a periplasmic extract of a phage clone; also called anti-human IL12Rb2 VHH14; hIL12Rb2 VHH; not shown: HA/His tag encoded by the pMECS phagemid) VHH: QVQLQESGGGSVQAGGSLRLSCAASGVTYSRYCMGWFRQAPGLERERVAHIYSRGIITYYTDSVKGRFTISQDSAKKTVYLQMNSLKPEDTAMYYCAATRETYGGSGDCGYESVYNYWAQGTQVTVSS | binds | –
VHH16 (VHH, Camel VHH, tested as a periplasmic extract of a phage clone; also called anti-human IL12Rb2 VHH16; hIL12Rb2 VHH; not shown: HA/His tag encoded by the pMECS phagemid) VHH: QVQLQESGGGSVQAGGSLRLSCAASGVTYSRYCMGWFRQAPGLERERVAHIYSRGIITYYTDSVKGRFTISQDSAKKTVYLQMNSLKPEDTAMYYCAATRETYGGSGDCSYESVYNHWAQGTQVTVSS | binds | –
VHH5 (VHH, Camel VHH, tested as a periplasmic extract of a phage clone; also called anti-human IL12Rb2 VHH5; hIL12Rb2 VHH; not shown: HA/His tag encoded by the pMECS phagemid) VHH: QVQLQESGGGLVQPGGSLKLSCAASGFTFSTYAMSWVRQAPGKEPEWISRISSGGGNTYYADAVKGRFAISRDNAKNTLYLQLNSLKTEDTAIYVCTMDDYYGGSWHPISRGHGTQVTVSS | binds | –
VHH6 (VHH, Camel VHH, tested as a periplasmic extract of a phage clone; also called anti-human IL12Rb2 VHH6; hIL12Rb2 VHH; not shown: HA/His tag encoded by the pMECS phagemid) VHH: QVQLQESGGGLVQAGGSLRLSCQASGYTYGLFCMGWFRQVSGKKREGVAVVDSPGGRHVADSLKGRFTISKDNANNILYLDMTNLKSEDTATYYCAADPEKYCFLFSDAGYQYWGQGTQVTVSS | binds | –
VHH2 (VHH, Camel VHH, tested as a periplasmic extract of a phage clone; also called anti-human IL12Rb2 VHH2; hIL12Rb2 VHH; not shown: HA/His tag encoded by the pMECS phagemid) VHH: QVQLQESGGGSVQAGGSLRLSCAASGFTISRYCMGWLRQAPGKQREGVAIIERDGRTGYADSVKGRFTISKDNAKNTLYLQMNSLKPEDTAMYYCGAIEGSCRPDFGYRGQGTQVTVSS | binds | –
VHH9 (VHH, Camel VHH, tested as a periplasmic extract of a phage clone; also called anti-human IL12Rb2 VHH9; hIL12Rb2 VHH; not shown: HA/His tag encoded by the pMECS phagemid) VHH: QVQLQESGGGSVQAGGSLRLSCAASGFTISRYCMGWLRQAPGKQREGVAIIERDGRTGYADSVKGRFTISKDNAKNTLYLQMNSLKPEDTAMYFCGAIEGSCRPDFGYRGQGTQVTVSS | binds | –
VHH8 (VHH, Camel VHH, tested as a periplasmic extract of a phage clone; also called anti-human IL12Rb2 VHH8; hIL12Rb2 VHH; not shown: HA/His tag encoded by the pMECS phagemid) VHH: QVQLQESGGGSVQAGGSLRLSCAASGFTVSRYCMGWLRQAPGKQREGVAIIEREGRTGYADSVKGRFTISKDNAKNTLYLQMNSLKPEDTAMYYCGAIEGSCRPDFGYRGQGTQVTVSS | binds | –
VHH4 (VHH, Camel VHH, tested as a periplasmic extract of a phage clone; also called anti-human IL12Rb2 VHH4; hIL12Rb2 VHH; not shown: HA/His tag encoded by the pMECS phagemid) VHH: QVQLQESGGGSVQAGGSLRLSCVASGFTISRYCMGWLRQAPGKQREGVAIIERDGRTGYADSVKGRFTISKDNAKNTLYLQMNSLKPGDTAMYYCGAIEGSCRPDFGYRGQGTQVTVSS | binds | –
VHH13 (VHH, Camel VHH, tested as a periplasmic extract of a phage clone; also called anti-human IL12Rb2 VHH13; hIL12Rb2 VHH; not shown: HA/His tag encoded by the pMECS phagemid) VHH: QVQLQESGGGSVQAGGSLRLSCAASGFTISKYCMGWLRQAPGKQREGVAIIERDGRTGYADSVKGRFTISKDNAKNTLYLQMNSLKPEDTAMYYCGAIEGSCRPDFGYRGQGTQVTVSS | binds | –
VHH1 (VHH, Camel VHH, tested as a periplasmic extract of a phage clone; also called anti-human IL12Rb2 VHH1; hIL12Rb2 VHH; not shown: HA/His tag encoded by the pMECS phagemid) VHH: QVQLQESGGGSVQAGGSLRLSCAASGFTVTRYCMGWLRQAPGKQREGVAIIERDGRTGYADSVKGRFTISKDNAKNTLYLQMNSLKPEDTAMYYCGAIEGSCRPDFGYRGQGTQVTVSS | binds | –
VHH10 (VHH, Camel VHH, tested as a periplasmic extract of a phage clone; also called anti-human IL12Rb2 VHH10; hIL12Rb2 VHH; not shown: HA/His tag encoded by the pMECS phagemid) VHH: QVQLQESGGGSVQAGGSLRLSCAASGFTVTRYCMGWLRQAPGKQREGVAIIERDGRTGYADSVKGRFTISKDNAKNTLYLQMNSLKPEDTAMYYCGAIEGSCRPDFGYRGQGTQVTVSS | binds | –
VHH17 (VHH, Camel VHH, tested as a periplasmic extract of a phage clone; also called anti-human IL12Rb2 VHH17; hIL12Rb2 VHH; not shown: HA/His tag encoded by the pMECS phagemid) VHH: QVQLQESGGGSVQAGGSLRLSCAASGLTISRYCMGWLRQAPGKQREGVAIIERDGRTGYADSVKGRFTISKDNAKNTLYLQMNSLKPEDTAMYYCGAIEGSCRPDFGYRGQGTQVTVSS | binds | –
VHH11 (VHH, Camel VHH, tested as a periplasmic extract of a phage clone; also called anti-human IL12Rb2 VHH11; hIL12Rb2 VHH; not shown: HA/His tag encoded by the pMECS phagemid) VHH: QVQLQESGGGSVQAGGSLRLSCAASGFTVSRYCMGWLRQAPGKQREGVAIIERDGRTGYADSVKGRFTISKDDAKNTLYLQMNSLKPEDTAMYYCGAIEGSCRPDFGYRGQGTQVTVSS | binds | –
mIL12Rb2 VHH2 (VHH, Camel VHH, tested as a periplasmic extract of a phage clone; also called anti-mouse IL12Rb2 VHH2; not shown: HA/His tag encoded by the pMECS phagemid) VHH: QVQLQESGGGSVQAGGSLRLSCAASGVTYGSYYMAAWFRQAPGKEREGVASIYGGSDSTYYADSVLGRFTISQDNGKNTLYLQMNSLKPDDTAMYYCAAAPPGKWFLKRLEGHNYSYWGQGTQVTVSS | – | binds
mIL12Rb2 VHH6 (VHH, Camel VHH, tested as a periplasmic extract of a phage clone; also called anti-mouse IL12Rb2 VHH6; not shown: HA/His tag encoded by the pMECS phagemid) VHH: QVQLQESGGGSVQAGGSLRLSCAVSGKAYGGAWFRQAQGKGREGVAAIWIGTGTTFYADSVKGRFTISRDNAKNTVYLQMDGLKPEDTAVYYCAADDRPGYRDPLAPVSYNHWGQGTQVTVSS | – | binds
mIL12Rb2 VHH9 (VHH, Camel VHH, tested as a periplasmic extract of a phage clone; also called anti-mouse IL12Rb2 VHH9; not shown: HA/His tag encoded by the pMECS phagemid) VHH: QVQLQESGGGSVQAGGSLTLSCVVSGKAFGGAWFRQAQGKGREGVAAIWIGTGTTFYADSVKGRFTISRDNAKNTVYLQMDGLKPDDTAMYYCAADDRPGYRDPLAPVSYNHWGQGTQVTVSS | – | binds
mIL12Rb2 VHH4 (VHH, Camel VHH, tested as a periplasmic extract of a phage clone; also called anti-mouse IL12Rb2 VHH4; not shown: HA/His tag encoded by the pMECS phagemid) VHH: QVQLQESGGGSVQVGGSLRLSCAVSGKLYGGAWFRQAQGKGREGVAAIWIGTGTTFYADSVKGRFTISRDNAKNTVYLQMDGLKPEDTALYYCAADDRPGYRDPLAPVSYNHWGQGTQVTVSS | – | binds
mIL12Rb2 VHH7 (VHH, Camel VHH, tested as a periplasmic extract of a phage clone; also called anti-mouse IL12Rb2 VHH7; not shown: HA/His tag encoded by the pMECS phagemid) VHH: QVQLQESGGGSVQAGGSLKLSCAVSGNPYGGAWFRQAQGKSREGVAAIWLGTGTTFYADSVKGRFTISRDNAKNTVYVQIDGLKPEDTAMYYCAADDRPGYRDPLAPVSYNHWGQGTQVTVSS | – | binds
mIL12Rb2 VHH8 (VHH, Camel VHH, tested as a periplasmic extract of a phage clone; also called anti-mouse IL12Rb2 VHH8; not shown: HA/His tag encoded by the pMECS phagemid) VHH: QVQLQESGGGSVQAGGSLRLSCVVSGKAYGGAWFRQAQGKSREGVAAIWIGTGTTFYADSVKGRFTISRDNAKNTVYLQMDGLKPEDTAMYYCAADDRPGYRDPLAPVSYNHWGQGTQVTVSS | – | binds

— US20230357414A1 (SYNTHEKINE, published 2023)
